{
  "source": "patent US20040121411",
  "key": {"[1]": {"tested_on": "radiolabeled βAPP-C100 polypeptide mimic"}, "[2]": {"tested_on": "radiolabeled βAPP-C83 polypeptide mimic"}},
  "data": [
    {"substance": "solubilized gamma-secretase complex (gamma-secretase associated with PS1) from HeLa cell membranes", "values": [
      {"measurement": "cleavage of 35S-labeled substrate, SDS-PAGE and phosphorimager", "setting": "[1]", "result": "The radiolabeled βAPP-C100 substrate was cleaved by the gamma-secretase complexes present in the solubilized protein and protein complex preparation (FIGS. 6 and 7) and the affinity enriched protein preparation (FIG. 8), to yield a 6 kDa cleavage product"},
      {"measurement": "cleavage of 35S-labeled substrate, SDS-PAGE and phosphorimager", "setting": "[2]", "result": "The radiolabeled βAPP-C83 substrate was also cleaved by the gamma-secretase complexes present in the solubilized protein and protein complex preparation (FIG. 7) and the affinity enriched protein preparation, to yield a 6 kDa cleavage product"}
    ]}
  ]
}
